Test results from the DeepSol protein solubility set.

Assay: soluble on expression in E. coli; label from the status in PepcDB or PDB records

| Sequence | soluble on expression in E. coli |
| --- | --- |
| AIANCCIGLGEKARGSHRASYPSLSALFTEASILGFGSFAVKAQWTEDCRKSTYPPSGPTVFPAVIRYRGAVPWYTINLDLPPYKRWHELMLDKAPVPGLLGNFPGPFEEEMKGIAAVTDIPLGEIISFNIFYELFTVCTSIVAEDKKGHLIHGRNMDFGVFLGWNINNDTWVITEQLKPLTVNLDFQRNNKTVFKASSFAGYVGMLTGFKPGLFSLTLNERFSINGGYLGILEWILGKKDAMWIGFLTRTVLENSTSYEEAKNLLTKTKILAPAYFILGGNQSGEGCVITRDRKESLDVYELDAKQGRWYVVQTNYDRWKHPFFLDDRRTPAKMCLNRTSQENISFETMYDVLSTKPVLNKLTVYTTLIDVTKGQFETYLRDCPDPCIGW | soluble |
| MNEFETLLNSVEDVKVRDVVKGEILSVENGQATVAIVGTGVEGVLTLREITNDKDADINTFVKPGDVLDLLVIKQIVGKEAEGANVYLLSLKRLEARKAWTQLEGKEGEIVTVKVTKDVKGGLSVDYNGVRGFIPASMIDTYFVKDTKKFVGEEIEAKIIEVNASENRFILSRRAVVEAEAIEMRKEAFAQLQEGDIVEGTVSRVTNFGAFVDLGGIDGLVHVSELSHSRIKRPSDAVKPGDVVNVKILKLDPEAGRLSLSLKATQPGPWEQVEEKAPVGSTVEGTVKRLTDFGAFVELYPGVEGLVHVSQISWERVENPKDVLKVGQVVNVKVLDVKPAEERISLSIKALEEAPARPARNNDNDGEKRDRKPRAPRKAAKPSYDLPETQEGFSLADFLGEDFDINDLLEHHHHHH | soluble |
| MSKRRYLTGKEVQAMMQAVCYGATGARDYCLILLAYRHGMRISELLDLHYQDLDLNEGRINIRRLKNGFSTVHPLRFDEREAVERWTQERANWKGADRTDAIFISRRGSRLSRQQAYRIIRDAGIEAGTVTQTHPHMLRHACGYELAERGADTRLIQDYLGHRNIRHTVRYTASNAARFAGLWERNNLINEKLKREEV | not soluble |
| MGSDKIHHHHHHMNIRILGCHGSQVPGCNTTSFLVEENVLIDAGSITSTLTAEEQVKVDYIFVTHAHLDHVKEMMFMVDNLWYLQKSNPLTIVSIEPVIHALKTHLFNGLIWPDFSSLPNAENPVLRYEILEVGGKRNIGSFAVTAISVNHTVETVSYVIETGQGSMIFIGDTGPTEEIWKVANSIEDLKAIFVETSLPDEMNHIAEMTGHLTPAMLMKELFKLNNKNLDIYLYHMKDFYSKLITRQVAAMNQNRLHILEDGQTVRI | not soluble |
| MVAQSKILLYYKFTPIADPKAMMLWQRDMCELLGLKGRILISEHGINGTVGGDMDACKRYVRKMREYPGFRGTEFKWSDGGAEDFPKLSVKVRDEIVAFGAPGELKVDEKGVIGGGVHLKPEEVNKLVEERGDDVVFFDGRNAMEAQIGKFKNAVVPDVRTTHDFIRELESGKYDWMKDKPVVSYCTGGIRCEILSSLMKNRGFKEIYQIDGGIVRYGEKYGNDGLWEGSLYVFDRRMHMEFGNGVQDPGFIQLGHCVQCGAPTNKFEHCINEDECRELVLMCPDCYENPATRNCGREHCKEVAAEAAAAAAVLEHHHHHH | soluble |
| MYGRKLYNVDQTNVYASLMFETEFNKQNSFSAGLSFNYDAYDQHYRLENQTELPLIKAFAKEAVPGAYAQYTLNLNDQWMLMAGLRGDYSNEHGFFVTPRAHLKYNPNEYVHFRLSAGKGYRTNHVLAENNYLLSSSRKVEIAKGLDMEEAWNYGASVSTYVPVFGKTLNINAEYYYTDFLKQVVVDMDSNPHEVAFYNLDGRSYSHVFQVEASYPFFKGFTLTGAYRLTDAQTTYKGQRMEKPLTSKYKGLLTASYQTPLGIWQFDATLQLNGGGRMPSPYELADGQLSWERRYGSFEQLSAQITRYFRRWSVYIGGENLTNFKQKNPIIDAANPWGGNFDSTMIWGPVHGAKAYIGIRFNLARNE | not soluble |
| MNKQPGQQPLRSLSLTSAAKSPEEVEPEQDSKKGEPRAKAAGFGGGGGGGKRLPEARSTPMVIPNQVAAMPVQMTGFVQLVANNILSAIAHTNSVMVVQCIKPLEIFTGFETPNRYVVHDMYCRPLLYCMERSNIFARQYEGNDRNFGMQIMDTHGAQVMTCFRGRPCCSTDDFLSTQFLDQQIGMMKKECCNPNFELVGSGCNQPLLIQSPGCAGCGGTQKFPVMTFNGVLVGEIVRLYPGFMQEMFTDADTYIVHFPMDMPPILKLLLVTSVFLIDFTYFEDRNQDQHRNGGMHSGMHSSF | not soluble |
| MLEFETNIDGLASIKVIGVGGGGNNAVNRMIENEVQGVEYIAVNTDAQALNLSKAEVKMQIGAKLTRGLGAGANPEVGKKAAEESKEQIEEALKGADMVFVTAGMGGGTGTGAAPVIAQIAKDLGALTVGVVTRPFTFEGRKRQLQAAGGISAMKEAVDTLIVIPNDRILEIVDKNTPMLEAFREADNVLRQGVQGISDLIATPGLINLDFADVKTIMSNKGSALMGIGIATGENRAAEAAKKAISSPLLEAAIDGAQGVLMNITGGTNLSLYEVQEAADIVASASDQDVNMIFGSVINENLKDEIVVTVIATGFIEQEKDVTKPQRPSLNQSIKTHNQSVPKRDAKREEPQQQNTVSRHTSQPADDTLDIPTFLRNRNKRG | soluble |
| MHNQAPIQRRKSTRIYVGNVPIGDGAPIAVQSMTNTRTTDVEATVNQIKALERVGADIVRVSVPTMDAAEAFKLIKQQVNVPLVADIHFDYRIALKVAEYGVDCLRINPGNIGNEERIRMVVDCARDKNIPIRIGVNAGSLEKDLQEKYGEPTPQALLESAMRHVDHLDRLNFDQFKVSVKASDVFLAVESYRLLAKQIDQPLHLGITEAGGARSGAVKSAIGLGLLLSEGIGDTLRVSLAADPVEEIKVGFDILKSLRIRSRGINFIACPTCSRQEFDVIGTVNALEQRLEDIITPMDVSIIGCVVNGPGEALVSTLGVTGGNKKSGLYEDGVRKDRLDNNDMIDQLEARIRAKASQLDEARRIDVQQVEK | soluble |
| SLDRLYAKAMKSKYTKLLLENFLLSPYEMTDPAIMAGLQKNVYPKYDELKTLRGLEGVKKHLSYVREKQEPYSKGNIAKYLKKAIEQYLPTVKRQDID | soluble |
| MVAAGDINVRVTSMDSELEFAIQSSTTGKQLFDQVVKTIGLREIWYFGLQYTDNKGFPTWLKLNKKVLSQDVKKDPTLVFKFRAKFYPEDVAEEIIQDVTMRLFYLQVKDGILSDEIYCPPETSVLLASYAMQAKYGDYVPETHVAGCLTADRLLPQRVLGQFKLNSEEWERRIMTWWADHRATTREQAMLEYLKIAQDLEMYGVNYFEIRNKKGTDLYLGVDALGLNIYDKADRLSPKVGFPWSEIRNISFNDKKFVIKPIDKKAHDFVFYAPRLRINKRILALCMGNHELYMRRRKPDTIEVQQMKQQAREDRALKIAEQEKLTREMSAREEAEQRQRDAEKRMAQMQEDMERARLELAEAHNTIHSLEAQLKQLQLAKQALEQKEYELRELTAQLQSEKAMSDGERRHLRDQVDAREREVFSMREEVERQTTVTRQLQTQIHSQQHTQHYSNSHHVSNGHAHDETATDDEDNGATELTNDADQNVPQHELERVTAAEKNIQIKNKLDMLTRELDSVKDQNAVTDYDVLHMENKKAGRDKYKTLRQIRGGNTKRRIDQYENM | not soluble |
| MDEFVKGLMKNGYLITPSAYYLLVGHFNEGKFSLIELIKFAKSRETFIIDDEIANEFLKSIGAEVELPQEIKEGYISTGEGSQKVPDHEELEKITNESSVESSISTGETPKTEELQPTLDILEEEIGDIEGGESSISTGDEVPEVENNNGGTVVVFDKYGYPFTYVPEEIEEELEEYPKYEDVTIEINPNLEVVPIEKDYEIKFDVRRVKLKPPKVKSGSGKEGEIIVEAYASLFRSRLRKLRRILRENPEVSNVIDIKKLKYVKGDEEVTIIGLVNSKKETSKGLIFEVEDQTDRVKVFLPKDSEDYREALKVLPDAVVAFKGVYSKRGIFFANRFYLPDVPLYRKQKPPLEEKVYAVLTSDIHVGSKEFCEKAFIKFLEWLNGYVESKEEEEIVSRIRYLIIAGDVVDGIGIYPGQYSDLIIPDIFDQYEALANLLSNVPKHITIFIGPGNHDAARPAIPQPEFYEEYAKPLYKLKNTVIISNPAVIRLHGRDFLIAHGRGIEDVVSFVPGLTHHKPGLPMVELLKMRHLAPTFGGKVPIAPDPEDLLVIEEVPDLVQMGHVHVYDTAVYRGVQLVNSATWQAQTEFQKMVNIVPTPGLVPIVDVESARVIKVLDFSRWC | soluble |
| MDNPEPARIVRLMEHRADIAIVGGGLNGPALALALAQSGQSVVLVDALPDPLRTDAEFDGRAYALALASQRLLAAVGVWDHVAEAAQPMLEIKVSDGHAGAGPSPFFLHFDHAEIEEGPMGYMVEDRYLRRALLAAMEDAPRITRLNGAAVTAQQTDGTGVVLTLADGSHLRAGLVVGCDGRKSGTATRAGIKRTGWDYGQTALVCAIAHERPHHGIAHQFFMPPGPLAILPLPGNRSSIVWSERTEAAARINALPEAEYLEILRPRFGDFLGEIRLEGARFTYPLNLTVANAFVAERLALVGDAAHGMHPIAGQGLNAGLRDVGALAEVLILAARRGEDIGAAPVLERYQQWRRFDTATLALATDAFNRLFSNDNPLLRLGRDVGMGVIGAFPGLRRGFVREATGLTGDLPKLMQGRAILEHHHHHH | not soluble |
| MIVIFVDFDYFFAQVEEVLNPQYKGKPLVVCVYSGRTKTSGAVATANYEARKLGVKAGMPIIKAMQIAPSAIYVPMRKPIYEAFSNRIMNLLNKHADKIEVASIDEAYLDVTNKVEGNFENGIELARKIKQEILEKEKITVTVGVAPNKILAKIIADKSKPNGLGVIRPTEVQDFLNELDIDEIPGIGSVLARRLNELGIQKLRDILSKNYNELEKITGKAKALYLLKLAQNKYSEPVENKSKIPHGRYLTLPYNTRDVKVILPYLKKAINEAYNKVNGIPMRITVIAIMEDLDILSKGKKFKHGISIDNAYKVAEDLLRELLVRDKRRNVRRIGVKLDNIIINKTNLSDFFDI | soluble |
| MWRGKYSGGYQNRFVSAKSSGTSSLSDGKSMNNVPPPAALTVGNAPVPPPNRNILLSNRKEQEMKKEQEYANLMAYGSTSEKQSRRKRIYDDEYLEGGSDDEKPASSSSKLAADDDDEEDELDAFMAGIEKQASSDKKVSEQKEKDRKEGKDTEDPSKKGLGRADIDEEDMQESLFKFMEEYKEKHENDDEQLEYDEDGNIIWSWKKVIDPLPDIDHSQIQYQKFNKNFYEEHEDIKRLHYMDVIRLQNTMNLRVGGLKPPRPVCSFAHFSFDKLLMEAIRKSEYEQPTPIQAMAIPSALSGRDVLGIAKTGSGKTAAYLWPAIVHIMDQPDLKAGEGPVAVIVVPTRELAIQVFQEAKKFCKVYNINPICAYGGGSKWEQSNELQNEGAEMVVCTPGRIIDLVKMGATNFLRTTFLVFDEADRMFDMGFEAQVKSISDHVRPDRQCLMFSATFKQKVERLARDALVDPVRIVQGEVGEANADIEQKVFVMQNQDVKLHWLIRNLVEFASLGKVLIFVTKKLDSEDVAKKLKMKDFDIVLLHGDMLQAERNENLLKFRKKSQILVATDVAARGLDISEIRTVINFDMARDIDTHVHRIGRTGRAGHKGTAYTLVTEKDIEMVGHLVKNLESVSQEVPKPLMDLAMKSSWFRGQRAGNGGPSTGTQTRGRMGLGYTPKVRQVGGGATGAQFDPLKEQKSCRGGGNQTVDGMIRNAQSFATSSSSSSSSSSGPASGANRAQMLKSAFQKSFQTTFQRPTNESSNLPQQVASDPRPEWKKKVDELNAKIAQQQASSASGGSSSSSSSSKRSRWE | not soluble |
| MGLKDWIEAPAAAVVPAKRSKLNWLRGAAARLTTPLLPDDYLHLANPLWSARELRGQIVEVRAETADSATIVIKPGWGFDFDYEPGQYIGIGLHIDGRWHWRSYSLTSPPNWDDKLISIAVKAMPEGFLSSHLVNGVPSGTIVRLATPTGNFALPDPPPERILFLTAGSGITPVMAMLRTMNRRGQLPDVFHVHSAPTDADVMFADELTQLHEEHDDFRCKIQLTRSQGKFALSSLDEVCPDWRERQTWACGPLPMLDEIETLWRDEGIENKLHLERFAVSRADTSGEGGTVTFAKADKTVSVDGATTLLEAGEQVGALMPFGCRMGICQTCVVPILAGHAIDLRSGKQHAEGDRVQTCISAAAGDCTLDA | not soluble |
